Measured values from patent US20170114111A1 (UNIVERSITY OF CAPE TOWN, published 2017).

Target: CD64 (human, UniProt P12314 16-374)
Experiment: cell-based or functional assay

CD64, sequence (P12314 16-374): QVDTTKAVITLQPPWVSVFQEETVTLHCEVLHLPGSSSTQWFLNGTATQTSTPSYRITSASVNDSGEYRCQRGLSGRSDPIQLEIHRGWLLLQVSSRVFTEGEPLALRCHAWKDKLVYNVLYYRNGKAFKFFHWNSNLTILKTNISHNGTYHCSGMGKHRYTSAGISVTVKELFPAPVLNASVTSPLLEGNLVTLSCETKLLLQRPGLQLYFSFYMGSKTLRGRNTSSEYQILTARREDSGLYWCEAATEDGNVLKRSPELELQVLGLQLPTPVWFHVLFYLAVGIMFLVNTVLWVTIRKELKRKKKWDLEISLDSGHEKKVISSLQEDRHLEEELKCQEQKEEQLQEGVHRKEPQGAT

B1: H22-Ang GGRR/QGmut (other)
chain: DAAQPAMAQVQLVESGGGVVQPGRSLRLSCSSSGFIFSDNYMYWVRQAPGKGLEWVATISDGGSYTYYPDSVKGRFTISRDNSKNTLFLQMDSLRPEDTGVYFCARGYYRYEGAMDYWGQGTPVTVSSGGGGSGGGGSGGGGSDIQLTQSPSSLSASVGDRVTITCKSSQSVLYSSNQKNYLAWYQQKPGKAPKLLIYWASTRESGVPSRFSGSGSGTDFTFTISSLQPEDIATYYCHQYLSSWTFGQGTKLEIKAAALESRQDNSRYTHFLTQHYDAKPQGRDDRYCESIMRRRGLTSPCKDINTFIHGNKRSIKAICENKNGNPHRENLRISKSSFQVTTCKLHRRSPWPPCQYRATAGFRNVVVACENGLPVHLDGSIFRRPAEHEFRGGPEQKLISEEDLNSAVDHHHHHH
IC50, XTT viability assay on IFNγ-stimulated CD64+ HL-60 cells: 4.2 nM
IC50, XTT viability assay on activated human Mφ: 0.075 nM
IC50, XTT viability assay on hIFNγ-stimulated HL-60 cells: 4.3 nM
